Measured values: patent US10428327B2, “Compositions and methods for enhancing homologous recombination” (LIFE TECHNOLOGIES CORPORATION, priority 2016, dated 2019)

Tested on: disrupted EmGFP stable cell lines
Experiment: Homologous recombination (HDR) assay, gain of EmGFP function by flow cytometry
Type: cell-based
Conditions: for Avg (% GFP+ cells): sequential delivery
Procedure: The JUMP-IN™ system was used to prepare […]™ HEK293 stable cell expressing EmGFP (Thermo Fisher Scientific). The gene sequence of EmGFP is described in Table 5. To create a disrupted EmGFP mutant stable cell line, a gRNA targeting the 5′-[…]-3′ (SEQ ID NO: 125) sequence in EmGFP gene was synthesized. The resulting gRNA (300 ng) was incubated with 1.5 μg of GENEART® […]™ Cas9 nuclease and used to transfect wild type EmGFP cells via electroporation. The single cell clonal isolation was carried out by limiting dilution. The EmGFP loci from non-glowing cells were amplified by PCR using a forward primer 5′-[…]-3′ (SEQ ID NO: 126) and a reverse primer 5′-[…]-3′ (SEQ ID NO: 127) and the resulting PCR products were subjected to TOPO cloning and sequencing. From these clones, a disrupted EmGFP stable cell line containing a deletion of 5′-CACCTT-3′ (SEQ ID NO: 25) was identified (Table 5). In the homologous recombination assay, the gain of EmGFP function was determined by flow cytometric analysis.
To create homologous recombination (HR) assays, a series of gRNAs flanking the insertion site within the EmGFP gene were designed and synthesized (Table 4). Each individual gRNA was combined with GENEART™ […]™ Cas9 Nuclease to form the Cas9 protein/gRNA ribonucleoprotein complexes (Cas9 RNPs). The Cas9 RNPs were then used to transfect cells via NEON® electroporation. The genomic cleavage efficiency was then evaluated using the GENEART® Genomic Cleavage Detection kit at 48 hours post transfection. The gRNAs with highest editing efficiencies and also in close proximity to the insertion site were selected for the subsequent HR assays. For donor design of a single-stranded oligonucleotide, typically the mutation site was positioned at the center flanked by 30 to 50 nucleotides on each side. For asymmetric donor design, 30 nucleotides were placed on either the left or right arm and then 50 or 67 nucleotides on the right or left arm respectively, in both PAM and non-PAM strands. For design of a dsDNA oligonucleotide with single-stranded overhangs, the insertion element was overlapped in the center flanked by various lengths of ssDNA oligonucleotide on each side. By annealing two single-stranded oligonucleotides at 95° C. for 3 minutes, dsDNA donor molecules with either a 5′ protrusion or a 3′ protrusion were generated. To measure homologous recombination efficiency, the donor DNA was either co-transfected with Cas9 RNPs or delivered sequentially into cells via electroporation. At 48 hours post transfection, the gain of EmGFP function in reporter cell lines was determined by flow cytometric analysis with an Attune® NxT Acoustic Focusing Cytometer (Thermo Fisher Scientific). Alternatively, the genomic loci were PCR-amplified using the corresponding primers and then subjected to GENEART® Genomic Cleavage Detection assay or restriction digestion. The resulting PCR products were also subjected to TOPO cloning. Typically, 96 colonies were randomly picked for sequencing. The sequencing data were analyzed using VECTOR NTI ADVANCE® 11.5 software (Thermo Fisher Scientific).
For each homologous recombination assay, 1.5 μg of Cas9 protein and 360 ng of gRNA were added to Resuspension Buffer R to a final volume of 7 μl, but limiting the total volume of Cas9 protein plus gRNA to less than 1 μl. The gRNA could be diluted in Buffer R if the concentration was too high. Upon mixing, the sample was incubated at room temperature for 5 to 10 minutes to form Cas9 RNPs. Meanwhile, […]™ HEK293 cells expressing either eBFP or disrupted EmGFP were detached from culture flask with TRYPLE™ Express Enzyme and then counted. Aliquots of 1×10^6 cells were washed once with DPBS without Ca^2+ and Mg^2+ and the cell pellets were resuspended in 50 μl of Resuspension Buffer R. A 5 μl aliquot of cell suspension was mixed with 7 μl of Cas9 RNPs. […] The electroporated cells were transferred to 300 μl of […]. […]

[1] = Equal Mass of donor, +5 gRNA, 6 nt insertion
[2] = Equal Molarity of donor, +5 gRNA, 6 nt insertion

“40: unmodified 40-mer PAM ssDNA donor, EmGFP, SEQ ID 43 (DNA GGCGAAGCACTGCACGCCGTAGGTGAAGGTGGTCACGAGG; DNA, backbone not given here) [compound 40]” was tested, and the “Avg (% GFP+ cells)” value [1] was 2.96% and the “Avg (% GFP+ cells)” value [2] was 1.38%.

In the case of “PS40: phosphorothioate 40-mer PAM ssDNA donor, EmGFP, SEQ ID 42 (DNA GGCGAAGCACTGCACGCCGTAGGTGAAGGTGGTCACGAGG; 5' phosphate, chemistry not fully specified)”, the “Avg (% GFP+ cells)” value [1] is reported as 4.35% and the “Avg (% GFP+ cells)” value [2] is reported as 1.79%.

B1: PS79: phosphorothioate 79-mer PAM ssDNA donor, EmGFP, SEQ ID 38 (nucleic acid)
DNA: CATGTGGTCGGGGTAGCGGGCGAAGCACTGCACGCCGTAGGTGAAGGTGGTCACGAGGGTGGGCCAGGGCACGGGCAGC
modifications: 5' phosphate, modified ends, chemistry not fully specified
B1 was tested, and the “Avg (% GFP+ cells)” value [1] was 12.94% and the “Avg (% GFP+ cells)” value [2] was 12.53%.

B2: 79: unmodified 79-mer PAM ssDNA donor, EmGFP, SEQ ID 39 (nucleic acid)
DNA: CATGTGGTCGGGGTAGCGGGCGAAGCACTGCACGCCGTAGGTGAAGGTGGTCACGAGGGTGGGCCAGGGCACGGGCAGC
modifications: DNA, backbone not given here
In the case of B2, the “Avg (% GFP+ cells)” value [1] is reported as 7.99% and the “Avg (% GFP+ cells)” value [2] is reported as 7.62%.

B3: 48-50 NP: symmetric non-PAM strand ssDNA donor, EmGFP, SEQ ID 70 (nucleic acid)
DNA: GTGCTGCTTCATGTGGTCGGGGTAGCGGGCGAAGCACTGCACGCCGTAGGTGAAGGTGGCACGAGGGTGGGCCAGGGCACGGGCAGCTTGCCGGTGG
modifications: DNA, backbone and methylation of C not given here; further chemistry not fully specified
With B3 the “Avg (% GFP+ cells)” value ((+3) gRNA, 10 pmol ssDNA donor) was 9.5%, the “Avg (% GFP+ cells)” value ((+5) gRNA, 10 pmol ssDNA donor) was 26.0% and the “Avg (% GFP+ cells), normalized HDR efficiency (% EmGFP+ cells/% Indel)” value ((+5)gRNA) was 38.2%. For the same molecule, the “Avg (% GFP+ cells)” value ((−3) gRNA, 10 pmol ssDNA donor) was 18.3% and the “Avg (% GFP+ cells), normalized HDR efficiency (% EmGFP+ cells/% Indel)” value ((−3)gRNA) was 26.1%.

B4: 50-30 NP: asymmetric non-PAM strand ssDNA donor, EmGFP, SEQ ID 66 (nucleic acid)
DNA: CGGGGTAGCGGGCGAAGCACTGCACGCCGTAGGTGAAGGTGGTCACGAGGGTGGGCCAGGGCACGGGCAGCTTGCCGGTGG
modifications: chemistry not given here
With B4 the “Avg (% GFP+ cells)” value ((+3) gRNA, 10 pmol ssDNA donor) was 4.1%, the “Avg (% GFP+ cells)” value ((+5) gRNA, 10 pmol ssDNA donor) was 30.8% and the “Avg (% GFP+ cells)” value ((−3) gRNA, 10 pmol ssDNA donor) was 30.0%.

B5: 30-51 NP: asymmetric non-PAM strand ssDNA donor, EmGFP, SEQ ID 68 (nucleic acid)
DNA: GCTGCTTCATGTGGTCGGGGTAGCGGGCGAAGCACTGCACGCCGTAGGTGAAGGTGGTCACGAGGGTGGGCCAGGGCACGG
modifications: chemistry not given here
For B5, the “Avg (% GFP+ cells)” value ((+3) gRNA, 10 pmol ssDNA donor) was 11.3%, the “Avg (% GFP+ cells)” value ((+5) gRNA, 10 pmol ssDNA donor) was 20.6% and the “Avg (% GFP+ cells)” value ((−3) gRNA, 10 pmol ssDNA donor) was 23.7%.

B6: 30-51 P: asymmetric PAM strand ssDNA donor, EmGFP, SEQ ID 67 (nucleic acid)
DNA: CCGTGCCCTGGCCCACCCTCGTGACCACCTTCACCTACGGCGTGCAGTGCTTCGCCCGCTACCCCGACCACATGAAGCAGC
modifications: chemistry not given here
B6 was tested, and the “Avg (% GFP+ cells)” value ((+3) gRNA, 10 pmol ssDNA donor) was 4.0%, the “Avg (% GFP+ cells)” value ((+5) gRNA, 10 pmol ssDNA donor) was 30.6% and the “Avg (% GFP+ cells)” value ((−3) gRNA, 10 pmol ssDNA donor) was 34.7%.

B7: 50-30 P: asymmetric PAM strand ssDNA donor, EmGFP, SEQ ID 65 (nucleic acid)
DNA: CCACCGGCAAGCTGCCCGTGCCCTGGCCCACCCTCGTGACCACCTTCACCTACGGCGTGCAGTGCTTCGCCCGCTACCCCG
modifications: DNA, backbone and methylation of C not given here; further chemistry not fully specified
For B7, the “Avg (% GFP+ cells)” value ((+3) gRNA, 10 pmol ssDNA donor) was 8.7%, the “Avg (% GFP+ cells)” value ((+5) gRNA, 10 pmol ssDNA donor) was 19.7% and the “Avg (% GFP+ cells)” value ((−3) gRNA, 10 pmol ssDNA donor) was 24.6%.
